# Experimental data taken from US6713249B2, “Cell matrix plaques of initial bone formation” (Barnes-Jewish Hospital, priority 1998, dated 2004).
# B1: OP-1: osteogenic protein OP-1, also referred to as bone morphogenetic protein-7 (BMP-7), component of the osteogenic medium (protein, UniProt P18075 293-431, looked up)
# Bone morphogenetic protein 7: STGSKQRSQNRSKTPKNQEALRMANVAENSSSDQRQACKKHELYVSFRDLGWQDWIIAPEGYAAYYCEGECAFPLNSYMNATNHAIVQTLVHFINPETVPKPCCAPTQLNAISVLYFDDSSNVILKKYRNMVVRACGCH
# Tested on: αvβ3 integrin plaque-like cell/matrix areas in human preosteoblasts
# Assay: Immunocytochemical localization of cell surface αvβ3 integrin plaques in non-permeabilized cells
# Type: cell-based
# Settings: bone marrow stromal cells in osteogenic medium with 40 ng/ml OP-1 for 48 hours, non-strained, no Triton X-100; compare FIG. 1C with FIG. 2C
# Protocol: Bone marrow stromal cells grown to semi-confluence and then exposed to osteogenic medium containing 10 mM of β-glycerophosphate, 50 μg/ml ascorbic acid and 40 ng/ml of osteogenic protein OP-1(32) also referred to as bone morphogenetic protein-7 (BMP-7), for 48 hours were defined as preosteoblasts. These preosteoblast cultures are characterized by alkaline phosphatase activity of 80,000 nmole pNPP/min./μg protein, osteopontin expression, absence of osteocalcin expression, and mineralization after 14 days in osteogenic media. […]
# Immunocytochemical analysis essentially was performed as previously described (34). […] The results were analyzed either on Zeiss Fluorescent Microscope (Axioscope) using a 63× oil immersion lens or on a Zeiss laser confocal microscope using a 63× lens. […]
# In order to examine whether mechanical strain has a qualitative and/or quantitative effect on the localization and expression level of integrins, near-confluent human preosteoblasts and osteoprogenitors were strained on Flexcell Strain Apparatus, as described in Methods. […] In the presence of Triton X-100, which leads to cell permeabilization and thus, allows examination of the distribution of intracellular as well as cell surface molecules, the αvβ3 integrin, as detected by an anti-human αvβ3 antibody, was localized along actin fibers and in small, granular structures adjacent to actin fibers (FIGS. 1A, 1B, 2A and 2B). […]
molecule,measurement,value
B1,number of the plaque-like cell/matrix areas of the αvβ3 expression,stimulation
